Experimental data: article PMC10397247

Experiments:
Assay in all cases: two-hybrid library CCmax;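 note: natural log of median RNA to DNA barcode read ratio; higher means stronger binding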
4H536-AA = molecular target: T1, 4H536-AA; settings: mean of both orientations
T1 chain: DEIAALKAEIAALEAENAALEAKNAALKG

4H458-AA = molecular target: T2, 4H458-AA; settings: mean of both orientations
T2 chain: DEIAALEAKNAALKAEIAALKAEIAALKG

4H3381-AA = molecular target: T3, 4H3381-AA; settings: mean of both orientations
T3 chain: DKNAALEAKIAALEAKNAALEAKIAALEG

4H3130-AA = molecular target: T4, 4H3130-AA; settings: mean of both orientations
T4 chain: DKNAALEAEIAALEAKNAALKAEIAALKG

4H2253-AA = molecular target: T5, 4H2253-AA; settings: mean of both orientations
T5 chain: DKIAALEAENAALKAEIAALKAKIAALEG

4H710-AA = molecular target: T6, 4H710-AA; settings: mean of both orientations
T6 chain: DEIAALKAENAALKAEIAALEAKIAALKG

4H2725-AA = molecular target: T7, 4H2725-AA; settings: mean of both orientations
T7 chain: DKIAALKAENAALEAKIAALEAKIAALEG

4H485-AA = molecular target: T8, 4H485-AA; settings: mean of both orientations
T8 chain: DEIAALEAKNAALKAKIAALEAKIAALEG

4H797-AA = molecular target: T9, 4H797-AA; settings: mean of both orientations
T9 chain: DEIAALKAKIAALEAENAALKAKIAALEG

4H745-AA = molecular target: T10, 4H745-AA; settings: mean of both orientations
T10 chain: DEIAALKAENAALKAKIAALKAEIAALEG

4H2162-AA = molecular target: T11, 4H2162-AA
T11 chain: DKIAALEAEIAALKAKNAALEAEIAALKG

4H570-AA = molecular target: T12, 4H570-AA; settings: mean of both orientations
T12 chain: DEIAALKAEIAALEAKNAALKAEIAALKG

4H2389-AA = molecular target: T13, 4H2389-AA; settings: mean of both orientations
T13 chain: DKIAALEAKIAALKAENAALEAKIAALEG

4H3009-AA = molecular target: T14, 4H3009-AA; settings: mean of both orientations
T14 chain: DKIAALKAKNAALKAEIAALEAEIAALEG

4H94-AA = molecular target: T15, 4H94-AA; settings: mean of both orientations
T15 chain: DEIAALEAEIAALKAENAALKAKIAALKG

4H3410-AA = molecular target: T16, 4H3410-AA; settings: mean of both orientations
T16 chain: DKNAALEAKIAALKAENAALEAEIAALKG

4H3165-AA = molecular target: T17, 4H3165-AA; settings: mean of both orientations
T17 chain: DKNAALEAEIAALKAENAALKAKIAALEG

4H3120-AA = molecular target: T18, 4H3120-AA; settings: mean of both orientations
T18 chain: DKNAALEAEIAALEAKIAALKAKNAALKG

4H891-AA = molecular target: T19, 4H891-AA; settings: mean of both orientations
T19 chain: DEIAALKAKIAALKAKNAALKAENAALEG

4H310-AA = molecular target: T20, 4H310-AA; settings: mean of both orientations
T20 chain: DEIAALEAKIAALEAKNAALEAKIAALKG

4H2649-AA = molecular target: T21, 4H2649-AA; settings: mean of both orientations
T21 chain: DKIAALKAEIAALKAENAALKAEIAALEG

4H2865-AA = molecular target: T22, 4H2865-AA; settings: mean of both orientations
T22 chain: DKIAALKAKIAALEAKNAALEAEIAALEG

4H3697-AA = molecular target: T23, 4H3697-AA; settings: mean of both orientations
T23 chain: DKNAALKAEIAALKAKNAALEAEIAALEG

4H3395-AA = molecular target: T24, 4H3395-AA; settings: mean of both orientations
T24 chain: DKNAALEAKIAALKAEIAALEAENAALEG

4H3865-AA = molecular target: T25, 4H3865-AA; settings: mean of both orientations
T25 chain: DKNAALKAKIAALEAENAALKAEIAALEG

4H3590-AA = molecular target: T26, 4H3590-AA; settings: mean of both orientations
T26 chain: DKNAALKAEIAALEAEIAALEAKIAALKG

4H3753-AA = molecular target: T27, 4H3753-AA; settings: mean of both orientations
T27 chain: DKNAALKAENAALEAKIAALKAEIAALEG

4H3016-AA = molecular target: T28, 4H3016-AA; settings: mean of both orientations
T28 chain: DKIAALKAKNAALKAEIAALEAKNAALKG

4H930-AA = molecular target: T29, 4H930-AA; settings: mean of both orientations
T29 chain: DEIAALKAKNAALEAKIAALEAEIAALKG

4H629-AA = molecular target: T30, 4H629-AA; settings: mean of both orientations
T30 chain: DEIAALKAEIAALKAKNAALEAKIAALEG

4H2698-AA = molecular target: T31, 4H2698-AA; settings: mean of both orientations
T31 chain: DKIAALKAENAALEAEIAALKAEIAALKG

4H2438-AA = molecular target: T32, 4H2438-AA; settings: mean of both orientations
T32 chain: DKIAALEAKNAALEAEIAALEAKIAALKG

4H850-AA = molecular target: T33, 4H850-AA; settings: mean of both orientations
T33 chain: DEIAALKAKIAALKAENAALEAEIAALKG

4H2274-AA = molecular target: T34, 4H2274-AA; settings: mean of both orientations
T34 chain: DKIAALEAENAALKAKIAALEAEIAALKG

4H909-AA = molecular target: T35, 4H909-AA; settings: mean of both orientations
T35 chain: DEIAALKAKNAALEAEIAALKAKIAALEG

4H2330-AA = molecular target: T36, 4H2330-AA; settings: mean of both orientations
T36 chain: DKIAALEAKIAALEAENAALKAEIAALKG

4H2473-AA = molecular target: T37, 4H2473-AA; settings: mean of both orientations
T37 chain: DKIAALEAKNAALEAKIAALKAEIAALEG

B1: 4H2162-AA (peptide)
chain: DKIAALEAEIAALKAKNAALEAEIAALKG
interaction score (4H536-AA): -1.2 | interaction score (4H458-AA): -0.816 | interaction score (4H3381-AA): -1.58 | interaction score (4H3130-AA): -0.375 | interaction score (4H2253-AA): -1.34 | interaction score (4H710-AA): -1.09 | interaction score (4H2725-AA): -1.72 | interaction score (4H485-AA): -1.06 | interaction score (4H797-AA): -1.49 | interaction score (4H745-AA): -0.859 | interaction score (4H2162-AA): 1.73 | interaction score (4H570-AA): 0.778 | interaction score (4H2389-AA): -0.128 | interaction score (4H3009-AA): -1.18 | interaction score (4H94-AA): -0.0378 | interaction score (4H3410-AA): -0.231 | interaction score (4H3165-AA): -0.865 | interaction score (4H3120-AA): -1.44 | interaction score (4H891-AA): -1.78 | interaction score (4H310-AA): -0.523 | interaction score (4H2649-AA): -0.344 | interaction score (4H2865-AA): -0.262 | interaction score (4H3697-AA): -0.752 | interaction score (4H3395-AA): -0.899 | interaction score (4H3865-AA): -1.59 | interaction score (4H3590-AA): -0.841 | interaction score (4H3753-AA): -1.93 | interaction score (4H3016-AA): -2.12 | interaction score (4H930-AA): -1.36 | interaction score (4H629-AA): -1.01 | interaction score (4H2698-AA): -1.79 | interaction score (4H2438-AA): -0.363 | interaction score (4H850-AA): 0.439 | interaction score (4H2274-AA): -0.925 | interaction score (4H909-AA): -1.18 | interaction score (4H2330-AA): -1.04 | interaction score (4H2473-AA): -1.53
